B1: 2A2 CAR against ROR1 with Spacer 13 (protein)
chain: QVQLQQSGAELVRPGASVTLSCKASGYTFSDYEMHWVIQTPVHGLEWIGAIDPETGGTAYNQKFKGKAILTADKSSSTAYMELRSLTSEDSAVYYCTGYYDYDSFTYWGQGTLVTVSAGGGGSGGGGSGGGGSDIVMTQSQKIMSTTVGDRVSITCKASQNVDAAVAWYQQKPGQSPKLLIYSASNRYTGVPDRFTGSGSGTDFTLTISNMQSEDLADYFCQQYDIYPYTFGGGTKLEIKTGGGGSGPCPRCPAPMFWVLVVVGGVLACYSLLVTVAFIIFWVKRGRKKLLYIFKQPFMRPVQTTQEEDGCSCRFPEEEEGGCELRVKFSRSADAPAYQQGQNQLYNELNLGRREEYDVLDKRRGRDPEMGGKPRRKNPQEGLYNELQKDKMAEAYSEIGMKGERRRGKGHDGLYQGLSTATKDTYDALHMQALPPR
B2: R12 CAR with Spacer 15 (protein)
chain: QEQLVESGGRLVTPGGSLTLSCKASGFDFSAYYMSWVRQAPGKGLEWIATIYPSSGKTYYATWVNGRFTISSDNAQNTVDLQMNSLTAADRATYFCARDSYADDGALFNIWGPGTLVTISSGGGGSGGGGSGGGGSELVLTQSPSVSAALGSPAKITCTLSSAHKTDTIDWYQQLQGEAPRYLMQVQSDGSYTKRPGVPDRFSGSSSGADRYLIIPSVQADDEADYYCGADYIGGYVFGGGTQLTVTGGGGSGPPKPKDTMFWVLVVVGGVLACYSLLVTVAFIIFWVKRGRKKLLYIFKQPFMRPVQTTQEEDGCSCRFPEEEEGGCELRVKFSRSADAPAYQQGQNQLYNELNLGRREEYDVLDKRRGRDPEMGGKPRRKNPQEGLYNELQKDKMAEAYSEIGMKGERRRGKGHDGLYQGLSTATKDTYDALHMQALPPR
B3: 2A2 CAR against ROR1 with Spacer 21 (protein)
chain: QVQLQQSGAELVRPGASVTLSCKASGYTFSDYEMHWVIQTPVHGLEWIGAIDPETGGTAYNQKFKGKAILTADKSSSTAYMELRSLTSEDSAVYYCTGYYDYDSFTYWGQGTLVTVSAGGGGSGGGGSGGGGSDIVMTQSQKIMSTTVGDRVSITCKASQNVDAAVAWYQQKPGQSPKLLIYSASNRYTGVPDRFTGSGSGTDFTLTISNMQSEDLADYFCQQYDIYPYTFGGGTKLEIKTGGGGSGVPCPVPPMFWVLVVVGGVLACYSLLVTVAFIIFWVKRGRKKLLYIFKQPFMRPVQTTQEEDGCSCRFPEEEEGGCELRVKFSRSADAPAYQQGQNQLYNELNLGRREEYDVLDKRRGRDPEMGGKPRRKNPQEGLYNELQKDKMAEAYSEIGMKGERRRGKGHDGLYQGLSTATKDTYDALHMQALPPR
B4: R12 CAR with Spacer 1 (ROR1-specific R12 scFv, Gly-Ser linker, Spacer 1, CD28-derived transmembrane domain, 4-1BB costimulatory domain, CD3 zeta signaling … (protein)
chain: QEQLVESGGRLVTPGGSLTLSCKASGFDFSAYYMSWVRQAPGKGLEWIATIYPSSGKTYYATWVNGRFTISSDNAQNTVDLQMNSLTAADRATYFCARDSYADDGALFNIWGPGTLVTISSGGGGSGGGGSGGGGSELVLTQSPSVSAALGSPAKITCTLSSAHKTDTIDWYQQLQGEAPRYLMQVQSDGSYTKRPGVPDRFSGSSSGADRYLIIPSVQADDEADYYCGADYIGGYVFGGGTQLTVTGGGGSGKPCPPCKCPMFWVLVVVGGVLACYSLLVTVAFIIFWVKRGRKKLLYIFKQPFMRPVQTTQEEDGCSCRFPEEEEGGCELRVKFSRSADAPAYQQGQNQLYNELNLGRREEYDVLDKRRGRDPEMGGKPRRKNPQEGLYNELQKDKMAEAYSEIGMKGERRRGKGHDGLYQGLSTATKDTYDALHMQALPPR
B5: R11 CAR against ROR1 with Spacer 5 (protein)
chain: QSVKESEGDLVTPAGNLTLTCTASGSDINDYPISWVRQAPGKGLEWIGFINSGGSTWYASWVKGRFTISRTSTTVDLKMTSLTTDDTATYFCARGYSTYYGDFNIWGPGTLVTISSGGGGSGGGGSGGGGSELVMTQTPSSTSGAVGGTVTINCQASQSIDSNLAWFQQKPGQPPTLLIYRASNLASGVPSRFSGSRSGTEYTLTISGVQREDAATYYCLGGVGNVSYRTSFGGGTEVVVKTGGGGSGCPRCPEPKSCDTPPPCPRCPEPKSCDTPPPCPRCPEPKSCDTPPPCPRCPAPMFWVLVVVGGVLACYSLLVTVAFIIFWVKRGRKKLLYIFKQPFMRPVQTTQEEDGCSCRFPEEEEGGCELRVKFSRSADAPAYQQGQNQLYNELNLGRREEYDVLDKRRGRDPEMGGKPRRKNPQEGLYNELQKDKMAEAYSEIGMKGERRRGKGHDGLYQGLSTATKDTYDALHMQALPPR
B6: R11 CAR against ROR1 with Spacer 6 (protein)
chain: QSVKESEGDLVTPAGNLTLTCTASGSDINDYPISWVRQAPGKGLEWIGFINSGGSTWYASWVKGRFTISRTSTTVDLKMTSLTTDDTATYFCARGYSTYYGDFNIWGPGTLVTISSGGGGSGGGGSGGGGSELVMTQTPSSTSGAVGGTVTINCQASQSIDSNLAWFQQKPGQPPTLLIYRASNLASGVPSRFSGSRSGTEYTLTISGVQREDAATYYCLGGVGNVSYRTSFGGGTEVVVKTGGGGSGEPKSCDTPPPCPRCPEPKSCDTPPPCPRCPEPKSCDTPPPCPRCPAPMFWVLVVVGGVLACYSLLVTVAFIIFWVKRGRKKLLYIFKQPFMRPVQTTQEEDGCSCRFPEEEEGGCELRVKFSRSADAPAYQQGQNQLYNELNLGRREEYDVLDKRRGRDPEMGGKPRRKNPQEGLYNELQKDKMAEAYSEIGMKGERRRGKGHDGLYQGLSTATKDTYDALHMQALPPR
B7: R11 CAR against ROR1 with Spacer 4 (protein)
chain: QSVKESEGDLVTPAGNLTLTCTASGSDINDYPISWVRQAPGKGLEWIGFINSGGSTWYASWVKGRFTISRTSTTVDLKMTSLTTDDTATYFCARGYSTYYGDFNIWGPGTLVTISSGGGGSGGGGSGGGGSELVMTQTPSSTSGAVGGTVTINCQASQSIDSNLAWFQQKPGQPPTLLIYRASNLASGVPSRFSGSRSGTEYTLTISGVQREDAATYYCLGGVGNVSYRTSFGGGTEVVVKTGGGGSGELKTPLGDTTHTCPRCPEPKSCDTPPPCPRCPEPKSCDTPPPCPRCPEPKSCDTPPPCPRCPAPMFWVLVVVGGVLACYSLLVTVAFIIFWVKRGRKKLLYIFKQPFMRPVQTTQEEDGCSCRFPEEEEGGCELRVKFSRSADAPAYQQGQNQLYNELNLGRREEYDVLDKRRGRDPEMGGKPRRKNPQEGLYNELQKDKMAEAYSEIGMKGERRRGKGHDGLYQGLSTATKDTYDALHMQALPPR
B8: 2A2 CAR against ROR1 with Spacer 28 (protein)
chain: QVQLQQSGAELVRPGASVTLSCKASGYTFSDYEMHWVIQTPVHGLEWIGAIDPETGGTAYNQKFKGKAILTADKSSSTAYMELRSLTSEDSAVYYCTGYYDYDSFTYWGQGTLVTVSAGGGGSGGGGSGGGGSDIVMTQSQKIMSTTVGDRVSITCKASQNVDAAVAWYQQKPGQSPKLLIYSASNRYTGVPDRFTGSGSGTDFTLTISNMQSEDLADYFCQQYDIYPYTFGGGTKLEIKTGGGGSGSVCSRDFTPPMFWVLVVVGGVLACYSLLVTVAFIIFWVKRGRKKLLYIFKQPFMRPVQTTQEEDGCSCRFPEEEEGGCELRVKFSRSADAPAYQQGQNQLYNELNLGRREEYDVLDKRRGRDPEMGGKPRRKNPQEGLYNELQKDKMAEAYSEIGMKGERRRGKGHDGLYQGLSTATKDTYDALHMQALPPR

The binders below were run against human ROR1 (tyrosine-protein kinase transmembrane receptor ROR1) (human), Q01973 (assay: cell-based or functional assay).
Chain of human ROR1 (tyrosine-protein kinase transmembrane receptor ROR1) (human), Q01973 (Q01973 30-937): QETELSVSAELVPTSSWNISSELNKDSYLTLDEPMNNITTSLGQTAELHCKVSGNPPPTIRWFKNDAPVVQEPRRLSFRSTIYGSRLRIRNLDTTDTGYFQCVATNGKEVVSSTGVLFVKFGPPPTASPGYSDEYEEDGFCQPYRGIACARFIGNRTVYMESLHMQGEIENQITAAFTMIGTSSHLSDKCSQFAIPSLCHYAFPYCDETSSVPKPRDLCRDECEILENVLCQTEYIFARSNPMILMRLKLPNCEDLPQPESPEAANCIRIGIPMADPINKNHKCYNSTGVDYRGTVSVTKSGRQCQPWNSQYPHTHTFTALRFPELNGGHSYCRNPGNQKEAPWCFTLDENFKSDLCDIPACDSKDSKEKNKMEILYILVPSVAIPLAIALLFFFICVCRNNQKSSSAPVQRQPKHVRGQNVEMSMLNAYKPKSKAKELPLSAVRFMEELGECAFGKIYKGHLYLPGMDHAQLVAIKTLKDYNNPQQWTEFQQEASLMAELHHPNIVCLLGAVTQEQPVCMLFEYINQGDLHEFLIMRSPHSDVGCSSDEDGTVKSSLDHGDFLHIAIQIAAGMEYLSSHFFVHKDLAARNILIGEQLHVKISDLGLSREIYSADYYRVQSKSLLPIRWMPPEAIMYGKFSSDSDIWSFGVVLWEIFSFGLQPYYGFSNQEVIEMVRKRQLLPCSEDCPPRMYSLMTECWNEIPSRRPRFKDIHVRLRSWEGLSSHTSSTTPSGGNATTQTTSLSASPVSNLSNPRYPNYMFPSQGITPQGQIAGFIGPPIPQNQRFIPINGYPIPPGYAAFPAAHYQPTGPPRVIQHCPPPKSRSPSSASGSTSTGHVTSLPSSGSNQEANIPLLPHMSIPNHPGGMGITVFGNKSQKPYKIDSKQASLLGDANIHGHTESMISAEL

Binder	A549 IFNg, donor 2089	A549 IFNg, donor 5018	A549 IL-2, donor 2089	A549 IL-2, donor 5018	A549 normalized AUC, donor 2089	A549 normalized AUC, donor 5018	H1975 IFNg, donor 2089	H1975 IFNg, donor 5018	H1975 IL-2, donor 2089	H1975 IL-2, donor 5018
B1	46600	38900	1	3	42	61	67100	54300	1	14
B2		7610		9		81.2		4320		10
B3	55400	41300	1	3	38	58.9	78000	61900	2	13
B4		4350		0		80.9		4850		0
B5		60900		10		55.8		17300		2
B6		46300		10		58.4		7170		1
B7		37000		5		59.1		9130		1
B8	49900	34200	1	2	43.6	61	78300	58100	1	8

Same assay, conditions: not given

Binder	H1975 normalized AUC, donor 2089	H1975 normalized AUC, donor 5018	A549 IFNg, donor 2735	A549 IL-2, donor 2735	A549 normalized AUC, donor 2735	H1975 IFNg, donor 2735	H1975 IL-2, donor 2735	H1975 normalized AUC, donor 2735	A549 IFNg, donor 7811	A549 IL-2, donor 7811
B1	37.9	43.2								
B2		75	13800	8	64	16900	17	63		
B3	39.4	43.2								
B4		68.8	8940	4	67.6	15700	10	67.6		
B5		86.7							83600	87
B6		114							86700	89
B7		94.5							46200	26
B8	39.5	44.3								

Same assay, conditions: not given

Binder	A549 normalized AUC, donor 7811	H1975 IFNg, donor 7811	H1975 IL-2, donor 7811	H1975 normalized AUC, donor 7811
B5	48.8	32400	16	69.6
B6	51.4	11900	2	96.5
B7	54.6	15900	4	83.1

Source: patent US20260098075A1
